Assay results as given in patent US20160289340A1 (published 2016).

Assays:
[1] = biological target: T1, BSA control protein (bovine, UniProt P02769 25-607); experiment: ELISA, serially diluted IgG on coated BSA, anti-human IgG-HRP
T1 construct: Unconjugated BSA used as negative control coating next to SSEA-4-BSA glycoconjugate; also called bovine serum albumin

[2] = biological target: T1, BSA control protein; experiment: phage ELISA, serially diluted phage on coated BSA

T1 sequence (P02769 25-607 limits assumed): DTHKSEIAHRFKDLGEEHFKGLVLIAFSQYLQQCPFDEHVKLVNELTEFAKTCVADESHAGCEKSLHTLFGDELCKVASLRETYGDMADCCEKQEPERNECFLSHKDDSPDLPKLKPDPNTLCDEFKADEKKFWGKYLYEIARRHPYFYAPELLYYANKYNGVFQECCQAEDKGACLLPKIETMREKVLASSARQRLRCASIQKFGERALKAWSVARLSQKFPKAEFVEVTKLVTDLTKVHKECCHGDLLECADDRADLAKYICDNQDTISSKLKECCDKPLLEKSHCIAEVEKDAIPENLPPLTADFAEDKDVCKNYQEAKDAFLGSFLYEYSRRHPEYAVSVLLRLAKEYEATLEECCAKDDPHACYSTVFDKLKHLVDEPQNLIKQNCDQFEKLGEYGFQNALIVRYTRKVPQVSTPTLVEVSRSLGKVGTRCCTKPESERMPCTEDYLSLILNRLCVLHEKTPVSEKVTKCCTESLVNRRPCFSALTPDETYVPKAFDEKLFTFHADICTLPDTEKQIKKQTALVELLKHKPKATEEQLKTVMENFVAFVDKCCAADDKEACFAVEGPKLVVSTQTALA

Binder | binding result [1] | binding result [2]
3rd humanized MC41 IgG (antibody, V domains shown, also called humanized 3rd MC41) VH: QVQLKESGPGLVAPSKTLSLTCTVSGFSLSSQGVYWIRQPPGKGLEWIGAIWAGGSTNYNSALMSRLSISKDNSKSQVFLKMNSLQTDDTAMYYCARVDGYRGYNMDYWGQGTSVTVSS VL: ENVLTQSPAIMSATPGEKVTMTCSASSSVSYMHWYQQKSSTSPKLWIYDTSKLASGVPGRFSGSGSGNSYTLTISSMEAEDVATYYCFQGSGYPLTFGAGTKLEIKR | no binding | 
chimeric MC41 (chMC41) (antibody, V domains shown, Intact chimeric IgG of MC41) VH: QVQLKESGPGLVAPSKSLSITCTVSGFSLSSQGVYWVRQPPGKGLEWLGAIWAGGSTNYNSALMSRLSISKDNSKSQVFLKMNSLQTDDTAMYYCARVDGYRGYNMDYWGQGTSVTVSS VL: ENVLTQSPAIMSASPGEKVTMTCSASSSVSYMHWYQQKSSTSPKLWIYDTSKLASGVPGRFSGSGSGNSYSLTISSMEAEDVATYYCFQGSGYPLTFGAGTKLELKR | no binding | 
2nd humanized MC41 IgG (antibody, V domains shown, also called hMC41; humanized 2nd MC41) VH: QVQLKESGPGLVAPSKTLSLTCTVSGFSLSSQGVYWIRQPPGKGLEWIGAIWAGGSTNYNSALMSRLSISKDNSKSQVFLKMNSLQTDDTAMYYCARVDGYRGYNMDYWGQGTLVTVSS VL: ENVLTQSPAIMSATPGEKVTMTCSASSSVSYLHWYQQKSSTSPKLWIYDTSKLASGVPGRFSGSGSGNSYTLTISSMEAEDVATYYCFQGSGYPLTFGAGTKLEIKR | no binding | 
3rd scFv phage clone of humanized MC48 variant (scFv, also called 3rd humanized MC48 scFv phage; hMC48 (3rd)) scFv: QVQLQESGPGLVKPSETLSLTCTVSGFSLTSYGVSWIRQPPGKGLEWIGVIWGEGSTNYHSVLISRLTISKDNSKSQVFLKLNSLQTDDTATYYCAMTGTAYWGQGTLVTVSSGGGGSGGGGSGGGGSQIVLTQSPAIMSASPGEKVTMTCSASSSVSYMHWYQQKPGLAPRLLIYDTSKLSSGVPGRFSGSGSGTSYSLTISRLEAEDAATYYCHQWSSSPHTFGGGTKVEIKR |  | no binding
4th scFv phage clone of humanized MC48 variant (scFv, also called 4th humanized MC48 scFv phage; hMC48 (4th)) scFv: QVQLKESGPGLVAPSQSLSITCTVSGFSLTSYGVSWIRQPPGKGLEWIGVIWGEGSTNYHSVLISRLTISKDNSKSQVFLKLNSLQTDDTATYYCAMTGTAYWGQGTLVTVSSGGGGSGGGGSGGGGSQIVLTQSPAIMSASPGEKVTMTCSASSSVSYMHWYQQKSGTSPKRWIYDTSKLSSGVPGRFSGSGSGTSYSLTISRLEAEDAATYYCHQWSSSPHTFGGGTKVEIKR |  | no binding
